For experiment [1], the target named is human CD2 on cells (MOLT-4 human T lymphoblast cells; primary human T-cells; primary human NK cells) (human) (UniProt P06729). The experiment is described as follows: flow cytometry on MOLT-4 cells, anti-mouse AF488 secondary, 4 C. On the technique in general: In flow cytometry, cells or beads pass a laser one at a time.
Experiment [2] has as its target T1, human CD2 on cells (MOLT-4 human T lymphoblast cells; primary human T-cells; primary human NK cells) (human, UniProt P06729 25-351).
T1 sequence: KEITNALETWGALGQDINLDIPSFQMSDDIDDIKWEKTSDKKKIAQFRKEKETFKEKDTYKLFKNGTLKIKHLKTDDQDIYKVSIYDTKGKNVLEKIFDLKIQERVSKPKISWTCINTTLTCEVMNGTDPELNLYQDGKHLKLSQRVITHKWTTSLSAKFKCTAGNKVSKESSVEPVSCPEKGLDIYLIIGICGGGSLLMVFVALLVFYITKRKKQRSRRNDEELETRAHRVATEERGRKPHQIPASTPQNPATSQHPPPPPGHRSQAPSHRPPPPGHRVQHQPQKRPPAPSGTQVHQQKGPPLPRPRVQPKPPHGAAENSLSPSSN
The experiment in a line: cell-based or functional assay.

The text below walks through data of patent publication US20200368363A1 (MAGENTA THEERAPEUTICS, published 2020).

A word on the EC50: it is the concentration giving half of the maximal effect. Read a high EC50 as weaker potency.

With TS1/8 (antibody), the EC50 in experiment [1] came to 0.125 nM. This lies in the sub-nanomolar range.

B1: anti-CD2-amanitin ADC (RPA-2.10-AM), interchain, average drug-to-antibody ratio 6 (antibody, V domains shown)
VH: EVKLVESGGGLVKPGGSLKLSCAASGFTFSSYDMSWVRQTPEKRLEWVASISGGGFLYYLDSVKGRFTISRDNARNILYLHMTSLRSEDTAMYYCARSSYGEIMDYWGQGTSVTVSS
VL: DILLTQSPAILSVSPGERVSFSCRASQRIGTSIHWYQQRTTGSPRLLIKYASESISGIPSRFSGSGSGTDFTLSINSVESEDVADYYCQQSHGWPFTFGGGTKLEIER
As to B1, the “NK cell viability (CellTiter-Glo), in vitro NK-cell killing assay, IC50” value in experiment [2] turned out to be 0.0052 nM.
